From patent publication US20130302399A1 (published 2013) come the findings set out here.

Where two headings read alike, the source gives them in different places.

The target of assay [1] is T1, cynomolgus monkey PCSK9 (cynomolgus monkey, UniProt A0A7N9D9N8 150-747).
T1 chain: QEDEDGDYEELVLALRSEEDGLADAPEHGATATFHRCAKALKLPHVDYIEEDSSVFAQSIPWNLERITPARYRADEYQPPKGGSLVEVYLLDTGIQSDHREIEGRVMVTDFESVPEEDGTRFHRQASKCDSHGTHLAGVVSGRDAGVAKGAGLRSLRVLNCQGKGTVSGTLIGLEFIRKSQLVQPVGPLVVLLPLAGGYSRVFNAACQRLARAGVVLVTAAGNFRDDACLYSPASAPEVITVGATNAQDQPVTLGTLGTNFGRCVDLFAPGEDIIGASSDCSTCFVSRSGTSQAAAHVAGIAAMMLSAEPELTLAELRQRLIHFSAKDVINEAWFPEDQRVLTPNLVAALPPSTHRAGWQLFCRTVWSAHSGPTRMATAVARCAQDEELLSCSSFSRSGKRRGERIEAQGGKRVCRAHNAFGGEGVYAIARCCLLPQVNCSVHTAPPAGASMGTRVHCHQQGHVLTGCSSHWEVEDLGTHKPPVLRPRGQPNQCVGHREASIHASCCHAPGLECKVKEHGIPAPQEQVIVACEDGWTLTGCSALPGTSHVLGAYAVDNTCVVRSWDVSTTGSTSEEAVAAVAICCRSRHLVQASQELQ
Put plainly: ELISA. (In general: ELISA stands for enzyme-linked immunosorbent assay.)

Assay [2] addresses T2, human Proprotein Convertase Subtilisin-like/Kexin type 9 (UniProt Q8NBP7 31-692). Put plainly: ELISA.
The target of assay [3] is T2, human Proprotein Convertase …. Put plainly: ELISA. The source holds these as a separate data set.
Target sequence in this assay (Q8NBP7 31-692): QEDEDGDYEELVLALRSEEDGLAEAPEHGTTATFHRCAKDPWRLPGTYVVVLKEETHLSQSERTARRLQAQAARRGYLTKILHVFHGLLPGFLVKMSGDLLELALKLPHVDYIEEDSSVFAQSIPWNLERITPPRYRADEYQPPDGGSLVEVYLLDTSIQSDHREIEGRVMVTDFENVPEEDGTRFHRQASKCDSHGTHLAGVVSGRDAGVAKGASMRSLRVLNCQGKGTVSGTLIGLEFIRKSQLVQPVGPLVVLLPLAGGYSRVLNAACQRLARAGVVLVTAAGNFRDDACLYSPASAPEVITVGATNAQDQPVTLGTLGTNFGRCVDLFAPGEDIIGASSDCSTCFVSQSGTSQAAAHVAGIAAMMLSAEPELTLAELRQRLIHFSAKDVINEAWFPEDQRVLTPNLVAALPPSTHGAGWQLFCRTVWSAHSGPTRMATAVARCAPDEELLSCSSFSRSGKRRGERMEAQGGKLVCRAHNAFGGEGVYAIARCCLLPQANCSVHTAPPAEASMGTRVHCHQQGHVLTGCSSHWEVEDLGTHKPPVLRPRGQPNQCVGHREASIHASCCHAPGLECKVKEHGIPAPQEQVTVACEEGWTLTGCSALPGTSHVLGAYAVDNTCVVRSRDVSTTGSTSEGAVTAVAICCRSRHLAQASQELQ
The target in assay [4] is T1, cynomolgus monkey PCSK9. Put plainly: ELISA.
For assay [5], the target named is T2, human Proprotein Convertase …. In words: ELISA. This is another data set of the same source.
The target is the same in assay [6]. In words: ELISA. This is another data set of the same source.
Assay [7] has the same target. In words: PCSK9-LDLR blocking ELISA.

B1: Ab15 (antibody, V domains shown)
VH: QEQLEESGGDLVKPEGSLTLTCTASGFSFSSSYWICWVRQAPGKGLEWIACIDAGNSGSTYYASWAKGRFTISKASSTTVTLQMTSLTAADTATYFCASDLNDGWLGQFNLWGPGTLVTVSS
VL: NIVMTQTPSPVSGAVGGTVTIKCQASQSISDYLAWYQQKPGQPPKLLIYRASTLASGVPSRFRGSGSGTEYTLTITDLECADAATYYCQSYYSVTTNTYGNTFGGGTEVVVKR
The molecule B1 returned an EC50 with cynomolgus monkey PCSK9 [1] of 0.161 nM.

B2: Ab22 (antibody, V domains shown)
VH: EVQLVESGGGLVQPGGSLRLSCAASGFSLSSYAMNWVRQAPGKGLEWIGAIRSSGATFFASSVNGRFTISRDNSKNTVYLQMNSLRAEDTAVYYCARDTNDGWYINRLDLWGQGTLVTVSS
VL: AVLTQSPSTLSASVGDRVTITCQSSKSVYSNYLSWFQQKPGKAPKFLIYKASTLASGVPSRFSGSGSGTEFTLTISSLQPDDFATYYCAGGDTNIADNAFGGGTKVEIKR
As for B2, the EC50 in assay [2] came out at 0.0492 nM.

B3: Ab8 (antibody, V domains shown)
VH: QEQLVESGGGLVQPEGSLTLTCTASGFSFTSDYYMCWVRQAPGKGLEWIGCISTGDGSTYYASWAKGRFTISKPSSTTVTLQMTRLTAADTATYFCARDRYYSYAYGAYVYASDLWGPGTLVTVSS
VL: DIVMTQTPASVSEPVGGTVTINCQASESIRNYLSWYQQKPGQRPKLLIYGASTLASGVPSRFKGSGSGTDFTLTISDLECADAATYYCQSNYGISSRSYVNGFGGGTEVVVKR
For B3, the values for the EC50 (in assay [3]; in the assay with cynomolgus monkey PCSK9 [4]) were 0.0874 nM and 0.106 nM, respectively.

B4: Ab13 (antibody, V domains shown)
VH: QSVEESGGRLVTPGTPLTLTCTVSGIDLSTYGVGWVRQAPGKGLEYIGIISSSGSTYYASWAKGRFTISKTSSTTVDLKMTSLTTEDTATYFCARDWSSTTGYYGYFNMWGPGTLVTVSS
VL: AFELTQTPSPVSAAVGGTVTIKCQASQSISTALAWYQQKPGQPPKLLIYGASNLESGVPSRFSGSGSGTQFTLTISDLECADAAIYYCQSSYGSSTLAFGGGTEVVVKR
B4 returned an EC50 in assay [5] of 0.124 nM.

B5: Ab24 (antibody, V domains shown)
VH: QSLEESGGDLVKPGASLTLTCKASGFSFSSGYYMCWVRQAPGKGLEWIACIYAGSGGSTFFANWAKGRFTISKTSSTTVTLQMTSLTAADTATYFCARDGGYAGYGYAFFNLWGPGTLVTVSS
VL: DVVMTQTPASVSEPVGGTVTIKCQASERIYSGLAWYQQKPGQPPKLLIYGASTLASGVPSRFKGSGSGTDFTLTISDLECDDAAIYYCQATYYGSSYPNVFGGGTEVVVKR
In assay [6], B5 showed an EC50 of 0.178 nM.

B6: Ab23 (antibody, V domains shown)
VH: QSLEESGGDLVKPGASLTLTCKASGFSFSSGYYMCWVRQAPGKGLEWIACIYAGSGGSTFFANWAKGRFTISKTSSTTVTLQMTSLTAADTATYFCARDGGYAGYGYAFFNLWGPGTLVTVSS
VL: DVVMTQTPASVSEPVGGTVTIKCQASERIYSGLAWYQQKPGQPPKLLIYGASTLASGVPSRFKGSGSGTDFTLTISDLECDDAAIYYCQCTYYGSSYPNVFGGGTEVVVKR
With B6, in assay [7], the half-maximal inhibitory concentration (IC50) is 0.81 nM.

B7: Ab7 (antibody, V domains shown)
VH: EVQLVESGGGLVQPGGSLRLSCAASGFTVSSNYWICWVRQAPGKGLEWIGCIRDGGGTYYASSAKGRFTISRDNSKNTLYLQMNSLRAEDTAVYYCASDINDGWLGQFNLWGQGTLVTVSS
VL: DIVMTQSPSSLSASVGDRVTIKCQASQSISAYLAWYQQKPGKVPKLLIYRAYTLASGVPSRFSGSGSGTDFTLTISSLQPEDVATYYCQSYYSVTTNTYGNTFGGGTKVEIKR
As for B7, the values for the EC50 (in the assay with cynomolgus monkey PCSK9 [4]; in assay [5]) were 0.103 nM and 0.104 nM, respectively.

B8: Ab5 (antibody, V domains shown)
VH: QSVEESGGRLVTPGTPLTLTCTVSGFSLSSYAMSWVRQAPGKGLEWIGIISNSGTTYYASWAKGRFTISKTSTTVDLKITSPTTEDTATYFCARGIYWYWRVFNLWGPGTLVTVSS
VL: AVLTQTPSPVSAAVGGTVTINCQASQSVYNNLLSWYQQKPGQPPKLLIYDASNLASGVPDRFSGSGSGTQFTLTISGVQCDDAATYYCLGGYDDDADNAFGGGTEVVVKR
Turning to B8, the values for the EC50 (in assay [3]; with cynomolgus monkey PCSK9 [4]) were 0.116 nM and 0.169 nM, respectively.

B9: Ab9 (antibody, V domains shown)
VH: QSVEESGGRLVTPGTPLTLTCTVSGIDLSSYAMGWVRQAPGKGLEYIGIIVSYGPTYYASWAKGRFTISKTSTTVDLKITSPTAEDTATYFCARDLDANSSGYYGCFNIWGQGTLVTVSS
VL: AVVLTQTPASVSAAVGGTVTIKCQASQSISTALAWYQQKPGQPPKLLIYAASPLASGVSSRFKSSGSGTEFTLTISDLECADAATYYCQSYYGSSNIAFGGGTELEILR
B9 displayed a concentration for a half-maximal effect (EC50) in assay [3] of 0.098 nM.

B10: Ab6 (antibody, V domains shown)
VH: QEQLEESGGDLVKPEGSLTLTCTASGFSFSSNYWICWVRQAPGKGLEWIGCIRDGGGTYYASWAKGRLTISMTSSTTVTLQLNSLTAADTATYFCASDINDGWLGQFNLWGPGTLVTVSS
VL: DIVMTQTPASVEVAVGGTVTIKCQASQSISAYLAWYQQKPGQPPKLLIYRAYTLASGVPSRFKGSGSGTQFTLTISDLECADAATYYCQSYYSVTTNTYGNTFGGGTEVVVKR
Regarding B10, the EC50 was 0.117 nM in assay [3] and 0.112 nM in the assay with cynomolgus monkey PCSK9 [4].

B11: Ab10 (antibody, V domains shown)
VH: QEQLEESGGDLVKPEGSLTLTCTASGFSFSSSYWICWVRQAPGKGLEWIACIRAGGGNYYANWAKGRFTISRTSSTTVTLQMTSLTAADTATYFCASDINDGWLGQFNLWGPGTLVTVSS
VL: NIVMTQTPASVEAAVGGTVTIKCQASQSISNYLAWYQQKPGQPPKLLIYRTSTLASGVPSRFKGSGSGTQFTLTISDLECADAATYYCQSYYSVTTVAYGNTFGGGTEVVVKR
B11: the response in assay [5] was half-maximal at 0.126 nM (EC50).

By EC50 is commonly meant the midpoint of the concentration-response curve. Broadly, the IC50 is the midpoint of a concentration-inhibition curve.
